Measured values taken from the NTF2 design screens of Basanta et al. (2020).

Assay: protease stability score; higher = more stable; yeast display proteolysis, trypsin and chymotrypsin;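 note: relative to predicted unfolded state with 0 unfolded-like and 1 meaning tenfold more protease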

| Sequence | protease stability score |
| --- | --- |
| SEDEEESEFAVRELSKIIKTGDPDRFHHLADPNMRFIYGDKREHGMESWVSHLHRLGIENVEVHIHDWSVFNGQVVIDGRINVNGREVNAEFVMRKIDGRWHITEVRER | 0.611 |
| SEDEEESEKFLRRLLQAYRTGDEDKLNELIDPNARMDVNGVDNHGWEEISRLLKELRVKHLILHDQKNYDGRAEMDTIVDGRFNGRDDRRKSIIIVIKIDGRWIIESLSIG | 1.1 |
| SEDEEESRHAYQKLVRDLETGDEKKTEDNVDPNVRLEQGDKTLHGRERFVHWYSRLGAKHFHIHSFEAQGDKIHIDGTINVNGVTHRVEYISLKVNGRWLMHQVIIR | 0.662 |
| SEDEEETRESLELLMRSLKTGDEHQIRRMFDPDALTVIDGREFHGRERATHAMREWKREIRIKEIRIRDWKTQGEKVHLDIEVVTEVNGVEDRREVKLLLIKVNGRWFIHSIHIH | 1.43 |
| SEDEEEVKHMVDEWWKQVLTGDEESLMRLIDPHAKLDFENVTYHGRDELSRYLTKLLREIRFRDIKIHDVRVYDGKVDLHTHMNIIVDGRTHILDTRMIIVKINGRWYIHQVRIK | 2.42 |
| SEDEEEVRKFLKRLLRATETGNEQVLKELFDPNVRIVIGDKHLIGWDFMHTILRRVDVWVVRHIEIKRIDFQGDKLDIDGHVHYEEQIDGQRVSHKRDVKLIMLKVNGVWMFEYIIIH | 2.45 |
| SEDEEEWHEATHLLVESLKTGDWKDLSRLADPNAKLHVGEKTVIGRELVSKHLKNRMTELGINHIHIEDRESQGDKIFIISHIHVNGREMKSIFIILKIDGRWILHSMEIREH | 0.327 |
| SEDEEFAEKYLKEWVERVRTGDEDHLWKLLDPDPRIRIDGKEIIGREIAVKHMSEIRPTSIRLTSFHSQGDKINVDGETDGEFNGVRQRQRVIYIILKVDGRWLLHSVEFK | 1.05 |
| SEDEEFAKHASEIMSRILETGNEEETNRMMDPNVRLDWNGQDHVGREDVLRFRKLIIEILGIERIKVELHDVKTVNGRVHTDIIVNINGQEYRLRVFMTKVNGRWHVKFMEFE | 1.7 |
| SEDEEFAKRFFEILVHYHKTGDWEKRMKMADPNTRSDINGVHFHGREDIYRFEDELWREMGIDHVEFHVRDSDIQGDKLHLHTQVIIHVGNKHIELDERMILLKFNGQWVLESLEVK | 1.32 |
| SEDEEFARTAVELVSEAWETGDENLEEHLLDPNVKIDIGDKELHGMESSIKYWREIRIHLLHVEIHSVEFFDGRVILDTRFKFDGDFDGKRIERSSTMIWIAHKVDGRWRVHHMENR | 1.25 |
| SEDEEFFKKALDLVFEYNRTGDERSMNELADPHVKVDINGVTLHGWEEFSRHLRELRLKTFKLDDLDSQGDKIITKGVFHHHINGRTIDLDVIIFTRKINGRWVLEKVEFK | 1.35 |
| SEDEEFLEWTMRLYTKAHATGDEETLTDLMDPNTRLDINGVIWIGREFVRKHHEDLGAKHSRMDLRIRDRDSINGRLIVHTRFRLKIHIGDKDISIEHHTTLYMIKIDGRWHIREIEIR | 1.09 |
| SEDEEFMRHKSELYLEMLKTGDEEELERLFDPNVRLHIGDKNQHGREQFSHFFSKLHKELGVDHLSFEHIHLEVVNGRLIIIMRVHLHVGDKVHDREISIDASKVDGQWLVQSVHIHVR | 0.121 |
| SEDEEFSKEATETILRVIHTGDWDMIKDLADPNARIHVGNYNSWGREEVMRVIRELFEVLGIKHLIFTHVEIDVIDGVVHSIIHGYEEVGDKTIETHIDIVSKKIDGRWRLQRIEIHHR | 1.29 |
| SEDEEHAEFFNRLLAESLMTGDWRTIANLLDPHVRVRVGDKQHHGREQVIHLLTKLLEDWGLERVHIHLRELRVINGRIHTRNELHVGDKTVDVKVHTRKIDGRWVIEEIEFR | 1.16 |
| SEDEEHAELALRLWEIVEKTGDETEARKMFDPHTRIIIDGRDLIGWSFIRHLMRRFDHVDIDHKREKRREFQGEKVRMDIEVDMEFVVGEKIYRIDFRVNIVLLKVNGKWRIHSLEIK | 2.47 |
| SEDEEHAERMLRILIELLLTGNESDFLRYADPNVRTIVGDKTFHGRDEFRTAWEWFLREIRLRHIELKHVEIQGNKVRVHGIWNIEINGRHIRLHVLIEIVVVDGVLRETRFEIR | 1.47 |
| SEDEEHAREFIKILFELLLTGDFKARLERLDPHTRLDVDGKDVHGMENINDLWLRIVEKYKNIQIHFHIHDVSIIGDKIHLHVHVEINVNGVNLRHEELTIVQKFNGKWIIKERHYI | 1.38 |
| SEDEEHARKLVEELLHIMITGDFHRIRELADPHARIVVGDKVFHGREMMFRFSRELRVHDHRLRHEEYINGVVHIEGHVDGEINGRRHRTEVRIHIVVIDGRVKTMEIRWD | 1.35 |
| SEDEEHARRFRELWLRIFHTGDWHEFHKLLDPNVRTQVGEFHDIGRESAAEHLELFLKQLGVDHTDITHVELIYIGDKVEVNILLRKEQGDKEYTFRIHIVVRKVNGQWLIKSIHITVE | 1.54 |
| SEDEEHARRVLEEMIDARLTGDEDKYETLLDPNVRFHQGEWSFHGMEELSRIVHHEARRIDHHEVRLKELRVVNGRVHSRTLLKLDFNGVEYRLKIELIITKVDGRWLLKEVRVR | 1.25 |
| SEDEEHDHKLARWILELLHTGDEETFLDLMDPNTRVIIHVGDKRIHNHGREVVKRIQEQLEEDWGVSRVEIHIRRMTIIDGRVRIDGLLEYDGRRHEIHMIFVIINGKIHSEEQHIH | 1.46 |
| SEDEEHLKELSEMLIKNWLTGDEKKWDRLADPHAKLRINVNGRDRRRVGMENVHRALHHLFHELRIKHLRDKDSNLINGVSHIEGESTILVGDKEIDTRIVIHLLIIDGRLEEERIVIE | 0.178 |
| SEDEEHSRIFVQLFQRAVETGDEDRMLQLMDPDARVHIGDKTYHGMFQFVRWLHDQLKRFKNIRIEWRLTEIDVFENHIIIKGELRLKAEGVDHIHNVIIYVNKINGRWIVHHMEIR | 1.52 |

| Sequence | protease stability score |
| --- | --- |
| SEDEEHWRKTINLLIIAIRTGNEDLFWKLLDPNTRFEVDIGDKMIDLHGREKVAEWLHRFIHKIPNLKIHIREIEFNENETRIHGETHFDGKTRTVEIIIELVDGRMKEFIFIVK | 2.16 |
| SEDEEIAHHVVNLIMKIIRTGDEDNFKQLFDPHTRFTVGDKHHIGRETVIEFFRRWEEFYPNIQLELRLRDVKAYGDKVHVETEVIIRVGDKDLRFETTVYILKYNGRWFLKQEQFR | 0.769 |
| SEDEEIAKEASEVFSDVLLTGNEDLFKEMIDPNVRVIVDGQDHIGRERALEFLIIWLERRGVEFKRVRVTRHRVIDGRVQMHYEVDSVVNGRRTNDSMELHSDKVNGRWIIRIIKFR | 2.38 |
| SEDEEIARRYLEFFLHILRTGDFEEMLRLLDPHVRTHVDGREKHGRENVTTFFMRWWEDYGFDHVTLEDFRVHIYGEKIHIKIDGYFHFNGRSVDVKIHVIAKKINGRWLLHEMHFEVR | 1.26 |
| SEDEEIFRIALHILIYTMKTGDEKMLEENFDPNTKIRVGDKEFVGREELRHWFEHLRPKDFKLRDISTQGEKIRIIGHSIGEVDGREVRYDVEMDLHKVDGRWRMTHERIH | 1.16 |
| SEDEEIHRKMFEDILHALRTGDWRELKHNLDPNVRLEVDGREIHGWEEVVKFLHEARVEHIEMRIRHVEFQGEKIISHRHMIFHKDVNGVRVDQRHDFTTIILKVNGRWRYHSIKID | 1.36 |
| SEDEEILREILEETNKALHTGDENHIRHLLDPHVRWHVGDKTIIGRDLLVDILRRMGVKHHEIRLRDMDHVGEKIRLEGELIIRYGDKTETHDVTFVLIKFDGRWHIEEYIHG | 0.866 |
| SEDEEIMKDLLELFFEAMKTGDEDTLRHLFDPNARFVIGDKLLHGREEYIRYLQEWRVEIEHFNIRRLELVDGRIHLEGHMHLHVQYGDKHERRTHHLEWEIIKINGRWIFRSVRIN | 1.48 |
| SEDEEIMQRLLEELIEALTTGDEDFFTELVDPHARTEFDGKVMHGRERLKYTIELFGVKHVEFRVEVKRISVFDGRILSDTHLELIIDVDGRSVIIRRHTELRVDKVDGRWFNTEHRIE | 0.183 |
| SEDEEIQKKFWEEFMKALHTGDWHTLEKLLDPHVRYLVGEKHVHGRKKLEMEIRHLGVTNIEMHLHIESEERQGNKIILNGEFRRRINGVEIKTRAILILIKIDGRWVIDTEFIE | 2.05 |
| SEDEEISERALRHVYKHLKTGDEDNFQKNFDPHVRFEAENVEFHGREASEHLSKRIDVIHRIIIRHHTIYNGVIVIHGEVDGEFNGKRDRDIVTIYYVKVNGQWQIRELKIG | 0.891 |
| SEDEEISKKIIERILETMRTGDEDIMEHLVDPDAKFHDEDHHDHGREAFRWWSEFVKRIAGHDKVEIRQQHVKFQGNKVILHTIVIQGNKIYELIIVMEKFDGRWSISTVHIR | 1.43 |
| SEDEEIVHLAIEMYLESIRTGDWKLWEKLIDPDVRLEVNGVEFHGMEEFLKFEREINKRVDHVEVRLRDTRLVNGQVNLNTELINRYDGRTIITETTYVAIKVDGKWYIHEYRIE | 1.14 |
| SEDEEIVKKMSKEELEFWRTGNEHELSKLFDPDVLLFVGEKIFHGREVFKHFKERVDHFHEFRDKHIQVIDGRIHIDSEVNSRFNGRQLSEDVRIQALKFDGRWHYKSIHML | 0.336 |
| SEDEEIVRHFLEIWIKILKTGDWHSMERLVDPHAKYENEHEVDHGRDSARRFVDELRVTEFRVESVKTQGDKATVHTRMVVHFNGKRIDTETRLHIHKVDGRWVVEIIIVN | 1.43 |
| SEDEEIWRRYAKEWYHNWSTGNFDRFKQLMDPDARFIYGDKELVGREEVLRRIRHLLEHLRFKRSEIKREHVVNGVLHLDVHEDGEQGDKSRRSDVEIILYVINGRLHTVEIRIE | 1.61 |
| SEDEEKAERLSRKVVHDLLTGDFKSLLEMFDPNVRVNINGVNNHGRHFFWHELYDELRRLGVDKIEVDLRSLQVYGDKVVLEMELRVNGKKITVEIHMKKVDGRWHIKEVTHE | 1.04 |
| SEDEEKASEVARRFVRSLATGDFDTLTRLMDPNYKHVYGDKEFVGREVIREHLEELRLHFEDNKVKHVRVIGDKIDTDMEVRFTVEFDGVRVHHEMKVEFRILKINGRWFLEFTIIR | 0.337 |
| SEDEEKATEFFRLLVDNWLTGDEENVERLLDPRVRVLVGDKMIHGRHLSARLESEFLKRIPNLRIRFHLHDVRTYGDKAHLDIIIDIHFNGVDIHIESELVVVKIDGRWLFKEERRK | 0.276 |
| SEDEEKATEMIEQLSRAILTGDEHTLHKLLDPRTRIVVNGRRIHGRELWLKFFRELRFHSDDMHIHSQEVQGDKAFFDVHWLGTRNINGVKEHSHTKTEVILLKYNGKWIVEELRYE | 2.17 |
| SEDEEKLQHMTHLFIHLEITGDEKLWTELADPNVRLDINGVEYHGREHVLRSWVELGIKVMRLHRRTAQGDKMHLDGTIDFNGRRYRIHVDVKIIDGKLKDTKQHIE | 2.17 |
| SEDEEKSHRFRRELLESLFTGDFDRFKELADPHVKVDINGRDIHGMELLVRIWRREEKEAGVNYTKDHDLKDHDIINGRAKIDIRVHGIFNGREQTVEVYIFSLKVDGRWILTFMKIN | 1.45 |
| SEDEEKSKRDAQHWFNNWLTGDWRRTLELADPHARIDINGKELHGMHESLELLTRLIEKLGVDHIEMKKSDVVGDKMHIHGHLDIDGQKRDLTIFLLIIDGRLKHSQFELT | 0.165 |
| SEDEEKTRKFIELFLYLWVTGDEDSLSELLDPNVRAEVNGKSAHGRDEVSKLSDVFMKELGVKHTRQTTQHRYEIQGDKLKSHLTIDIEVDGQNVKEFVVIVVEKINGRWIIRHIRFE | 1.1 |
| SEDEEKVFEHLQRITESFVTGDEDSFRHLLDPNVLFLINGRIFHGWEALHWELRRYDHHEVRVHVHHIDFINGRARSDIRLDLHLNFNGKQIDIHTETRVHAEKINGRWRLKRIDIE | 0.811 |
